Values of other authors, collected in paper PMC4359947.

Target: CAR D1 (Homo sapiens) (UniProt P78310)

Chain of CAR D1 (P78310 20-134): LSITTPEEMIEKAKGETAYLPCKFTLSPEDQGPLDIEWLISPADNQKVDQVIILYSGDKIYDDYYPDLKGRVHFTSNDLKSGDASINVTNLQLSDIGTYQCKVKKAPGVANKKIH

- Kd: 16 µM
Substance: CAR D1 (from UniProt P78310)
